Results published in the supplement of paper PMC5998384.

Experiments:
[1] = test system: HeLa Kyoto; assay: solubility in G1/S (NP-40 vs SDS abundance) (log2 ratio); higher = more soluble; settings: cell cycle stage: G1/S
[2] = test system: HeLa Kyoto; assay: solubility change mitosis vs G1/S (difference of NP-40 vs SDS log2 ratios) (log2 ratio difference); higher = more soluble in mitosis
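Wherever solubility change mitosis vs G1/S (difference of NP-40 vs SDS log2 ratios) is given: synchronized HeLa Kyoto cells (double thymidine block for G1/S, nocodazole release for mitosis), protein amounts in NP-40 versus SDS lysates quantified by mass spectrometry, three biological replicates.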
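Wherever solubility in G1/S (NP-40 vs SDS abundance) is given: HeLa Kyoto cells arrested at G1/S by double thymidine block, proteins quantified by TMT10plex mass spectrometry in mild NP-40 versus SDS extracts, three biological replicates.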

| Sequence | solubility in G1/S (log2) [1] | solubility change mitosis (log2) [2] |
| --- | --- | --- |
| MRPWTGSWRWIMLILFAWGTLLFYIGGHLVRDNDHPDHSSRELSKILAKLERLKQQNEDLRRMAESLRIPEGPIDQGPAIGRVRVLEEQLVKAKEQIENYKKQTRNGLGKDHEILRRRIENGAKELWFFLQSELKKLKNLEGNELQRHADEFLLDLGHHERSIMTDLYYLSQTDGAGDWREKEAKDLTELVQRRITYLQNPKDCSKAKKLVCNINKGCGYGCQLHHVVYCFMIAYGTQRTLILESQNWRYATGGWETVFRPVSETCTDRSGISTGHWSGEVKDKNVQVVELPIVDSLHPRPPYLPLAVPEDLADRLVRVHGDPAVWWVSQFVKYLIRPQPWLEKEIEEATKKLGFKHPVIGVHVRRTDKVGTEAAFHPIEEYMVHVEEHFQLLARRMQVDKKRVYLATDDPSLLKEAKTKYPNYEFISDNSISWSAGLHNRYTENSLRGVILDIHFLSQADFLVCTFSSQVCRVAYEIMQTLHPDASANFHSLDDIYYFGGQNAHNQIAIYAHQPRTADEIPMEPGDIIGVAGNHWDGYSKGVNRKLGRTGLYPSYKVREKIETVKYPTYPEAEK [FUT8] | -0.188 | -0.0307 |
| MRRAELAGLKTMAWVPAESAVEELMPRLLPVEPCDLTEGFDPSVPPRTPQEYLRRVQIEAAQCPDVVVAQIDPKKLKRKQSVNISLSGCQPAPEGYSPTLQWQQQQVAQFSTVRQNVNKHRSHWKSQQLDSNVTMPKSEDEEGWKKFCLGEKLCADGAVGPATNESPGIDYVQIGFPPLLSIVSRMNQATVTSVLEYLSNWFGERDFTPELGRWLYALLACLEKPLLPEAHSLIRQLARRCSEVRLLVDSKDDERVPALNLLICLVSRYFDQRDLADEPS [GEMIN2] | 0.59 | 0.437 |
| MRRDERDAKAMRSLQPPDGAGSPPESLRNGYVKSCVSPLRQDPPRGFFFHLCRFCNVELRPPPASPQQPRRCSPFCRARLSLGALAAFVLALLLGAEPESWAAGAAWLRTLLSVCSHSLSPLFSIACAFFFLTCFLTRTKRGPGPGRSCGSWWLLALPACCYLGDFLVWQWWSWPWGDGDAGSAAPHTPPEAAAGRLLLVLSCVGLLLTLAHPLRLRHCVLVLLLASFVWWVSFTSLGSLPSALRPLLSGLVGGAGCLLALGLDHFFQIREAPLHPRLSSAAEEKVPVIRPRRRSSCVSLGETAASYYGSCKIFRRPSLPCISREQMILWDWDLKQWYKPHYQNSGGGNGVDLSVLNEARNMVSDLLTDPSLPPQVISSLRSISSLMGAFSGSCRPKINPLTPFPGFYPCSEIEDPAEKGDRKLNKGLNRNSLPTPQLRRSSGTSGLLPVEQSSRWDRNNGKRPHQEFGISSQGCYLNGPFNSNLLTIPKQRSSSVSLTHHVGLRRAGVLSSLSPVNSSNHGPVSTGSLTNRSPIEFPDTADFLNKPSVILQRSLGNAPNTPDFYQQLRNSDSNLCNSCGHQMLKYVSTSESDGTDCCSGKSGEEENIFSKESFKLMETQQEEETEKKDSRKLFQEGDKWLTEEAQSEQQTNIEQEVSLDLILVEEYDSLIEKMSNWNFPIFELVEKMGEKSGRILSQVMYTLFQDTGLLEIFKIPTQQFMNYFRALENGYRDIPYHNRIHATDVLHAVWYLTTRPVPGLQQIHNGCGTGNETDSDGRINHGRIAYISSKSCSNPDESYGCLSSNIPALELMALYVAAAMHDYDHPGRTNAFLVATNAPQAVLYNDRSVLENHHAASAWNLYLSRPEYNFLLHLDHVEFKRFRFLVIEAILATDLKKHFDFLAEFNAKANDVNSNGIEWSNENDRLLVCQVCIKLADINGPAKVRDLHLKWTEGIVNEFYEQGDEEANLGLPISPFMDRSSPQLAKLQESFITHIVGPLCNSYDAAGLLPGQWLEAEEDNDTESGDDEDGEELDTEDEEMENNLNPKPPRRKSRRRIFCQLMHHLTENHKIWKEIVEEEEKCKADGNKLQVENSSLPQADEIQVIEEADEEE [PDE3B] | -0.122 | -0.0328 |
| MRRDVNGVTKSRFEMFSNSDEAVINKKLPKELLLRIFSFLDVVTLCRCAQVSRAWNVLALDGSNWQRIDLFDFQRDIEGRVVENISKRCGGFLRKLSLRGCLGVGDNALRTFAQNCRNIEVLNLNGCTKTTDATCTSLSKFCSKLRHLDLASCTSITNMSLKALSEGCPLLEQLNISWCDQVTKDGIQALVRGCGGLKALFLKGCTQLEDEALKYIGAHCPELVTLNLQTCLQITDEGLITICRGCHKLQSLCASGCSNITDAILNALGQNCPRLRILEVARCSQLTDVGFTTLARNCHELEKMDLEECVQITDSTLIQLSIHCPRLQVLSLSHCELITDDGIRHLGNGACAHDQLEVIELDNCPLITDASLEHLKSCHSLERIELYDCQQITRAGIKRLRTHLPNIKVHAYFAPVTPPPSVGGSRQRFCRCCIIL [FBXL20] | -0.0856 | -0.0226 |
| MRRSLAPSQLAKRKPEGRSCDDEDWQPGLVTPRKRKSSSETQIQECFLSPFRKPLSQLTNQPPCLDSSQHEAFIRSILSKPFKVPIPNYQGPLGSRALGLKRAGVRRALHDPLEKDALVLYEPPPLSAHDQLKLDKEKLPVHVVVDPILSKVLRPHQREGVKFLWECVTSRRIPGSHGCIMADEMGLGKTLQCITLMWTLLRQSPECKPEIDKAVVVSPSSLVKNWYNEVGKWLGGRIQPLAIDGGSKDEIDQKLEGFMNQRGARVSSPILIISYETFRLHVGVLQKGSVGLVICDEGHRLKNSENQTYQALDSLNTSRRVLISGTPIQNDLLEYFSLVHFVNSGILGTAHEFKKHFELPILKGRDAAASEADRQLGEERLRELTSIVNRCLIRRTSDILSKYLPVKIEQVVCCRLTPLQTELYKRFLRQAKPAEELLEGKMSVSSLSSITSLKKLCNHPALIYDKCVEEEDGFVGALDLFPPGYSSKALEPQLSGKMLVLDYILAVTRSRSSDKVVLVSNYTQTLDLFEKLCRARRYLYVRLDGTMSIKKRAKVVERFNSPSSPDFVFMLSSKAGGCGLNLIGANRLVMFDPDWNPANDEQAMARVWRDGQKKTCYIYRLLSAGTIEEKIFQRQSHKKALSSCVVDEEQDVERHFSLGELKELFILDEASLSDTHDRLHCRRCVNSRQIRPPPDGSDCTSDLAGWNHCTDKWGLRDEVLQAAWDAASTAITFVFHQRSHEEQRGLR [RAD54L] | -0.0919 | -0.192 |
| MRSRVLWGAARWLWPRRAVGPARRPLSSGSPPLEELFTRGGPLRTFLERQAGSEAHLKVRRPELLAVIKLLNEKERELRETEHLLHDENEDLRKLAENEITLCQKEITQLKHQIILLLVPSEETDENDLILEVTAGVGGQEAMLFTSEIFDMYQQYAAFKRWHFETLEYFPSELGGLRHASASIGGSEAYRHMKFEGGVHRVQRVPKTEKQGRVHTSTMTVAILPQPTEINLVINPKDLRIDTKRASGAGGQHVNTTDSAVRIVHLPTGVVSECQQERSQLKNKELAMTKLRAKLYSMHLEEEINKRQNARKIQIGSKGRSEKIRTYNFPQNRVTDHRINKTLHDLETFMQGDYLLDELVQSLKEYADYESLVEIISQKV [MTRF1L] | -0.0262 | 0.288 |
| MSAAGAGAGVEAGFSSEELLSLRFPLHRACRDGDLATLCSLLQQTPHAHLASEDSFYGWTPVHWAAHFGKLECLVQLVRAGATLNVSTTRYAQTPAHIAAFGGHPQCLVWLIQAGANINKPDCEGETPIHKAARSGSLECISALVANGAHVDLRNASGLTAADIAQTQGFQECAQFLLNLQNCHLNHFYNNGILNGGHQNVFPNHISVGTNRKRCLEDSEDFGVKKARTEAQSLDSAVPLTNGDTEDDADKMHVDREFAVVTDMKNSSSVSNTLTNGCVINGHLDFPSTTPLSGMESRNGQCLTGTNGISSGLAPGQPFPSSQGSLCISGTEEPEKTLRANPELCGSLHLNGSPSSCIASRPSWVEDIGDNLYYGHYHGFGDTAESIPELNSVVEHSKSVKVQERYDSAVLGTMHLHHGS [ANKRD10] | 0.0215 | 0.112 |
| MSANEDQEMELEALRSIYEGDESFRELSPVSFQYRIGENGDPKAFLIEISWTETYPQTPPILSMNAFFNNTISSAVKQSILAKLQEAVEANLGTAMTYTLFEYAKDNKEQFMENHNPINSATSISNIISIETPNTAPSSKKKDKKEQLSKAQKRKLADKTDHKGELPRGWNWVDVVKHLSKTGSKDDE [RWDD4] | 0.234 | 0.301 |
| MSAQTSPAEKGLNPGLMCQESYACSGTDEAIFECDECCSLQCLRCEEELHRQERLRNHERIRLKPGHVPYCDLCKGLSGHLPGVRQRAIVRCQTCKINLCLECQKRTHSGGNKRRHPVTVYNVSNLQESLEAEEMDEETKRKKMTEKVVSFLLVDENEEIQVTNEEDFIRKLDCKPDQHLKVVSIFGNTGDGKSHTLNHTFFYGREVFKTSPTQESCTVGVWAAYDPVHKVAVIDTEGLLGATVNLSQRTRLLLKVLAISDLVIYRTHADRLHNDLFKFLGDASEAYLKHFTKELKATTARCGLDVPLSTLGPAVIIFHETVHTQLLGSDHPSEVPEKLIQDRFRKLGRFPEAFSSIHYKGTRTYNPPTDFSGLRRALEQLLENNTTRSPRHPGVIFKALKALSDRFSGEIPDDQMAHSSFFPDEYFTCSSLCLSCGVGCKKSMNHGKEGVPHEAKSRCRYSHQYDNRVYTCKACYERGEEVSVVPKTSASTDSPWMGLAKYAWSGYVIECPNCGVVYRSRQYWFGNQDPVDTVVRTEIVHVWPGTDGFLKDNNNAAQRLLDGMNFMAQSVSELSLGPTKAVTSWLTDQIAPAYWRPNSQILSCNKCATSFKDNDTKHHCRACGEGFCDSCSSKTRPVPERGWGPAPVRVCDNCYEARNVQLAVTEAQVDDEGGTLIARKVGEAVQNTLGAVVTAIDIPLGLVKDAARPAYWVPDHEILHCHNCRKEFSIKLSKHHCRACGQGFCDECSHDRRAVPSRGWDHPVRVCFNCNKKPGDL [ZFYVE1] | -0.282 | -0.0704 |
| MSELSDEASEPELLNRSLSMWHGLGTQVSGEELDVPLDLHTAASIGQYEVVKECVQRRELDLNKKNGGGWTPLMYASYIGHDTIVHLLLEAGVSVNVPTPEGQTPLMLASSCGNESIAYFLLQQGAELEMKDIQGWTALFHCTSAGHQHMVRFLLDSGANANVREPICGFTPLMEAAAAGHEIIVQYFLNHGVKVDARDHSGATARMLAKQYGHMKIVALMDTYSPSLPKSLYRSPEKYEDLSSSDESCPAPQRQRPCRKKGVSIHEGPRALARITGIGLGGRAPRPRYEQAPPRGYVTFNSSGENPLEEEGLCCRDVTSPINERDVESSSSSSSREEHAFCANLGPVQSSSSSEGLARAQGLSSEASVESNEDSDHACKSSARKQAKSYMKTKNPDSQWPPRAATDREGFLAESSPQTQRAPYSGPQDLAALLEQIGCLKYLQVFEEQDVDLRIFLTLTESDLKEIGITLFGPKRKMTSAIARWHSSARPPGDALELAYADRLEAEMQELAIQLHKRCEEVEATRGQVCQEQELRAVVESCLLEQDRAREDLQARLRETWALARDAALVLDQLRACQAELSSRVRQDQPPGAATLGLAVPPADSKGWQASLQAMSLPELSGALEDRVREMGQALCLVTQSLEKLQVLNGKKWRET [ANKS3] | -0.0739 | 0.0304 |
| MSENNKNSLESSLRQLKCHFTWNLMEGENSLDDFEDKVFYRTEFQNREFKATMCNLLAYLKHLKGQNEAALECLRKAEELIQQEHADQAEIRSLVTWGNYAWVYYHMGRLSDVQIYVDKVKHVCEKFSSPYRIESPELDCEEGWTRLKCGGNQNERAKVCFEKALEKKPKNPEFTSGLAIASYRLDNWPPSQNAIDPLRQAIRLNPDNQYLKVLLALKLHKMREEGEEEGEGEKLVEEALEKAPGVTDVLRSAAKFYRRKDEPDKAIELLKKALEYIPNNAYLHCQIGCCYRAKVFQVMNLRENGMYGKRKLLELIGHAVAHLKKADEANDNLFRVCSILASLHALADQYEDAEYYFQKEFSKELTPVAKQLLHLRYGNFQLYQMKCEDKAIHHFIEGVKINQKSREKEKMKDKLQKIAKMRLSKNGADSEALHVLAFLQELNEKMQQADEDSERGLESGSLIPSASSWNGE [IFIT2] | 0.432 | -0.2 |
